This note sets out measurements from PMC11327109, “Unwinding of a eukaryotic origin of replication visualized by cryo-EM” (Nature Structural & Molecular Biology, 2024).

Positions count from the first letter of the chain named.

For data set [1], the system named is T1, sCMGE10 (single Cdc45-MCM-GINS-Polε with Mcm10).
T1 construct: gene MCM2; His- or TwinStrepII-tagged GINS; MCM loaded as Mcm2-7/Cdt1; wild type; ATP/ADP in MCM ATPase tier; with Cell division control protein 45; DNA replication complex GINS protein PSF1; DNA replication complex GINS protein PSF2; DNA replication complex GINS protein PSF3; DNA replication complex GINS protein SLD5; DNA polymerase epsilon catalytic subunit A; DNA polymerase epsilon subunit B; DNA polymerase epsilon subunit C; DNA polymerase epsilon subunit D; Minichromosome maintenance protein 10
Put plainly: cryo-EM structure of complex ([…]-3.[…] Å). It counts as binding, Saccharomyces cerevisiae. Particulars: assembled with 5 mM ATP, magnesium acetate, pH 7.6, bound to origin DNA; MCM ATPase sites.

A further data set deals with T2, Mcm10 deltaCTD (Saccharomyces cerevisiae, UniProt P32354 1-357, del358-571).
T2 sequence: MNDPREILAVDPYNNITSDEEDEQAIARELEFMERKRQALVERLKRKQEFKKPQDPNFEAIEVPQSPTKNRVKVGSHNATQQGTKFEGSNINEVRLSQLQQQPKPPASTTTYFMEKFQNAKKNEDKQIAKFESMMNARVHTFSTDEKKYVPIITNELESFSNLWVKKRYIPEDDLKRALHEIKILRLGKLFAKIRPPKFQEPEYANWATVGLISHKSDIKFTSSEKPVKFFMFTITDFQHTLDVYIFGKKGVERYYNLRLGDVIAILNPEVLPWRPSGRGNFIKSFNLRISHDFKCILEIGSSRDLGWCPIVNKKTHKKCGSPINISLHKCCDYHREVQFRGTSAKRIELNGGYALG
Put plainly: MST; 10 mM Mg acetate; MST: 25 mM HEPES-KOH pH 7.6, 100 mM K-glutamate, 10 mM Mg acetate, 0.02% NP-40, 0.5 mM TCEP, 5 nM ssDNA, room temperature, 30 min; CMG assembly/EM: same buffer. Particulars: protein: recombinant; tags: N-terminal 6xHis, C-terminal 3xFlag; label: FAM (after the 3' end).

Data set [2] deals with T3, Mcm10 3A (OB-fold mutant) (Saccharomyces cerevisiae, UniProt P32354 1-571, F230A;Y245A;F247A).
T3 sequence: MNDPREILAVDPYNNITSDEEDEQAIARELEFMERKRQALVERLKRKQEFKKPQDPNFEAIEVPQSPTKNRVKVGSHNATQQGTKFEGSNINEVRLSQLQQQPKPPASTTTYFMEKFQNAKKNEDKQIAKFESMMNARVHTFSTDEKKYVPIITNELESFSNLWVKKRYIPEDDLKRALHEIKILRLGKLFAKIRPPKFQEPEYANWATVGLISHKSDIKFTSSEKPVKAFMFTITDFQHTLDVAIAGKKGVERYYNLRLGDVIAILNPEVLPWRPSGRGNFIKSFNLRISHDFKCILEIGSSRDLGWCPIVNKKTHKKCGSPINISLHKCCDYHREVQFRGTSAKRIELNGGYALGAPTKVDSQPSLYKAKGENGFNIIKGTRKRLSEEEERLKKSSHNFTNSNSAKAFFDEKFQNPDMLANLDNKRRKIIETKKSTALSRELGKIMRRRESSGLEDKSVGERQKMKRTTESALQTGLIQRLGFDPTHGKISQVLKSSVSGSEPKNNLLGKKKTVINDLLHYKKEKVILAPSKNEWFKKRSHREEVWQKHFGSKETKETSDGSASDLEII
The data set is described as above. Particulars: protein: recombinant; label: FAM (after the 3' end).

The next data set addresses T4, Mcm10 wild-type (Saccharomyces cerevisiae, UniProt P32354 1-571).
T4 sequence: T3 sequence with A230F, A245Y, A247F
Described as above. Particulars: protein: recombinant; tags: N-terminal His, C-terminal Flag (pHis-Mcm10-Flag); label: FAM (after the 3' end).

Consider `Nc1ncnc2c1ncn2[C@@H]1O[C@H](COP(=O)(O)OP(=O)(O)OP(=O)(O)O)[C@@H](O)[C@H]1O` [ATP], for which the “cryo-EM structure of complex (3.7-3.9 Å)” value in data set [1] is “Cryo-EM density for nucleotide ATP and ADP for consensus, ssDNA and nexus map”.

For the molecule `Nc1ncnc2c1ncn2[C@@H]1O[C@H](COP(=O)(O)OP(=O)(O)O)[C@@H](O)[C@H]1O` [ADP], in data set [1], the “cryo-EM structure of complex (3.7-3.9 Å)” value was “Cryo-EM density for nucleotide ATP and ADP for consensus, ssDNA and nexus map”.

B1: FAM-labelled dC12 ssDNA (ssDNA)
DNA: CCCCCCCCCCCC
Turning to B1, the figures for the binding result (in the data set with Mcm10 deltaCTD; in data set [2]; with Mcm10 wild-type) were “binds”, “no binding” and “binds”, respectively.
